Assay results published in the supplement of paper PMC12764529.
± gives the half width of the 95% confidence interval.

Test: folding stability dG unfold (combined trypsin and chymotrypsin); higher = more stable
Summary of the method: (§1)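 Unfolding free energy was derived, per protease or combined, by relating Bayesian-fitted K50 values from sequencing counts to a sequence-predicted unfolded-state K50 and a shared folded-state K50. The underlying digests exposed cysteine-free mini-proteins under 80 residues, in a PA-tagged cDNA display construct, to trypsin and chymotrypsin at 11 threefold-diluted concentrations and to a no-protease condition. A filter kept only designs with AlphaFold2 dimer inter-PAE above 15.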

Sequence	folding stability dG unfold
SAGPYYIITVTIPLPNLSPDLQEDFPGQKVTFMFIVDPGMDMEQKRQIKEELRDFGIKDVDIMPADDIKSAG [r5_60_TrROS]	2.2 ± 0.1 kcal/mol
SAMTPEEIKKKVEELLKELAKELNAEVTSVKVDKETKTITVTVKVKLPNGETKTLTLKFTIDKDGKITFSAG [r14_183_TrROS_Hall]	4.32 ± 0.14 kcal/mol
SAGGSAGGSAGGMEVVIPLDKNERYLAYVLGEPKFVEFDPEKGYLVIPNTPPENVIVVKYSAGGSAGGSAGG [r7_200_TrMRF]	0.325 ± 0.1 kcal/mol
SAGPIKEKTITFPNGMRAKITDIQVGPPPDGEPLIKLKVKVEMWQPKRDPDGKQDGWQPMKMEMTLIIPSAG [r5_476_TrROS]	3.51 ± 0.36 kcal/mol
SAGGSAGGSASVVVTKETLPNGETRITTTTTTTTTVTVYDNNETVTTTTTTTTTTVVPKSLLSAGGSAGGSA [r18_34_JUSTAS]	1.38 ± 0.084 kcal/mol
SPPIEIKPAPENYLIAKIIDPKTNKVYYILIPKDAKLDQPALVYHPDKKEYIPLKEILDLLKKGYPLSISSA [r9_250_TrMRF]	2.35 ± 0.14 kcal/mol
SAGGSAGGSAGGPEVNIEVERYRLPNGGYLLVIRTSDGEEIVIEFDSPEEALKAAKEIAKSAGGSAGGSAGG [r11_955_TrMRF]	1.93 ± 0.077 kcal/mol
SAGGSAGGSAGGSGYTVKITLKNPDGTESTITISGTGSKEEIINSIKKKYPNNVTKVIESAGGSAGGSAGGS [r4_412_JUSTAS]	1.53 ± 0.31 kcal/mol
SAGNKVEIMLMVPMKPDPDGEPEIDPQMIREIAKAAGAEGRVEDVDIQPMPDYYMIRVRLPGKEIWIMSAGG [r19_398_TrROS]	1.38 ± 0.11 kcal/mol
SAGGSAGGSAGGGRRLVLVKVPPDVPEEVIREFARRLVEEGVPEPVVVERLEDDYALVLVSAGGSAGGSAGG [r7_283_TrMRF]	1.01 ± 0.17 kcal/mol
SAGGSAGGSAGDNWVIRIWWPNGKEQVFPGNLEDLLERIPPDNKDMKVEIFDPDDGKEIWSAGGSAGGSAGG [r11_353_TrROS]	1.1 ± 0.17 kcal/mol
SAGGSAGGSEEVVVVEVEGELVVVTKEETVTVVPAPPPPPLTAEQRALAKELEKLGLEVEIRDSAGGSAGGS [r12_172_TrROS_Hall]	-0.38 ± 0.37 kcal/mol
SAMKIKPVPDPVTGKTKYVIDFGDAEVVIYHFPNSYRIEVRKKPDNKTIVIEAKPNEIEEVLKELGLPASAG [r14_4_TrMRF]	1.86 ± 0.16 kcal/mol
SAGGSAGGSPNRKEIYIPISEEQFKENGMTPEEIADRIAEKFPHIPPNVRIEYPPNGWIKITVSAGGSAGGS [r12_50_TrROS]	0.229 ± 0.21 kcal/mol
SAGGSAGGSAGGKPEIKLVEVENEDGSKLIKIEVNGKTIIIENVKTEEELRELLKKLGIESAGGSAGGSAGG [r7_91_TrROS_Hall]	2.64 ± 0.25 kcal/mol
SAGGMMTLKITIVDEDGNEITIEVEMSIEELEELIKELFPGKKVKVVSVEEEPVEPGLVKVTIKIEKESAGG [r13_832_TrROS_Hall]	4.96 ± 0.33 kcal/mol
SAGGSAGGSAGKPKVRLKLRLTVRVTTLNEDGSLEETEVELELEVELPEVRLPSLEELLKSAGGSAGGSAGG [r11_285_TrROS_Hall]	3.07 ± 0.41 kcal/mol
SAGGSAGGSKVDIVKVEVYEVESPLGGRYYLVKVYRKDGRPILVLASPSTTPEEVLKKAEEAESAGGSAGGS [r12_1047_TrMRF]	2.48 ± 0.12 kcal/mol
SAGGPITITIKTKNGKELELKLPGIRSVQFNPDSVWIAFKFPDQYIMIQINPPNGKIMIQIMPPGQPISAGG [r13_392_TrROS]	3.18 ± 0.14 kcal/mol
SAGGSAGGSAGGMFLIKLPNGKVLLFESEEEAKAALEELTGKPVDLENLEIVPLPEEELSAGGSAGGSAGGS [r10_62_TrROS_Hall]	3.3 ± 0.11 kcal/mol
SAGGMSIEELLKEAGYEVTVEEEEVDGKLRLKITIKANGKTLVIEVPESDAEEVLREIAKALGLEPESAGGS [r8_226_TrROS_Hall]	3.53 ± 0.18 kcal/mol

Test: folding stability dG unfold from chymotrypsin proteolysis; higher = more stable
Summary of the method: as §1

Sequence	folding stability dG unfold
SAGGSAGGSAGIRIYWDPENGWYRVKYPDPDGKPVDEHPMPPDQLPEFLQAGNIEVEPWPSAGGSAGGSAGG [r11_159_TrROS]	1.27 ± 0.081 kcal/mol
SAGGSAGGSAGGMEVKVEEFVENGKPVVREFYPDSIKVTTYTFDENGNVTEKKEYVIPKESAGGSAGGSAGG [r7_722_JUSTAS]	0.92 ± 0.15 kcal/mol
SGKKIEIVKKILEELGIPIVKIEEVTPDRIVVEVEEGRRISIAIKPDDPDVVLIDPKPTEDGGWSSDLPDSA [r9_809_TrMRF]	0.939 ± 0.042 kcal/mol
SADPSRGMTLTVETKELPGKGLLLVTITTSGTVEEALAYVEELAKELGAEIEILEVNENTIVVKLKVLKSAG [r14_172_JUSTAS]	2.766 ± 0.014 kcal/mol
SAGGSAGGSAGKKTLPTYDPKKGKISLIVIEDKEGKEIVFEAFGDGKEFIEAAKEFEKKISAGGSAGGSAGG [r11_119_TrMRF]	0.182 ± 0.064 kcal/mol
SAGGSAGGSAGGPTIVIKDVKGLTPEQAEALARDLLKELGLEDADVRLERGEDGDLTFTYSAGGSAGGSAGG [r7_810_TrMRF]	0.79 ± 0.14 kcal/mol
SAGGSAPVVRVEIVVLGTGEVRTLTLEEAKRFLEAHPDKIDRVLVRVEVFEPDASTSDDVDPDGVPSAGGSA [r15_99_TrMRF]	1.97 ± 0.021 kcal/mol
SAGGMKVEIEIEEEPETGKVKITIKIDDVEIEIEATEEEIEKLIEEIEKIKAEPKLTEDGKLVPVIGSAGGS [r8_332_TrMRF]	1.8 ± 0.29 kcal/mol
SAGGSAGGSKIKIIVPKEKEEEAERLAKELKEKGEIPEVEIEVVESEEEAKELEEKADLVIVVSAGGSAGGS [r12_679_TrROS_Hall]	1.11 ± 0.19 kcal/mol
SAGGSAGGSAGRVVKITLPDGSSLDIDVPADDDLTKEEIEARLTVPPGEKVSIKSIEILEESAGGSAGGSAG [r3_465_JUSTAS]	0.899 ± 0.033 kcal/mol
SAGGSAGGSAKKKVKVVEIKITYDKEKNEYYIEAKVYNENTGETKTVRIKVKLKPGQKLKFSAGGSAGGSAG [r3_1_TrROS_Hall]	1.71 ± 0.066 kcal/mol
SAGGAVLTTEDPEKISLTFYSPEGAVLGSEEIEVEPPEIVLTNVPPEEAAAIKKENPDVPISLNPALGSAGG [r13_235_JUSTAS]	0.456 ± 0.029 kcal/mol
SAGGRIVINLNPENGYLMISIRMPHRRYDPEDGKGKPEPMSMSIMFPPEEIEKFAEEFGMPIEIVPWSAGGS [r8_337_TrROS]	1.4 ± 0.16 kcal/mol
SAGGSAGGSAGGPVIEIKVPSKEDALEAARKLLEELFGKKPEDMKITVEYNPEDKTIKIKSAGGSAGGSAGG [r7_387_TrROS_Hall]	1.28 ± 0.054 kcal/mol
SAGGSAGGSMKIKIEVDKETGYIVIEAEPGETIEIEIGGKKIKMEVIENEDGSLYFVFKIEKPSAGGSAGGS [r12_970_TrROS_Hall]	4.06 ± 0.085 kcal/mol
SAGGSKLTVEEIKKLFPNVEVTKKEDGTYEMRVTVEVTLPNGEKKKVEVTVKVEVKDGKIVKVEVTSAGGSA [r2_104_TrROS_Hall]	3.17 ± 0.092 kcal/mol
SAGGSAGGELPPPPLLVVRVTVRRDGKELELELVVPSLEEALEALRALLPEEDLEIRVEVRLLPSAGGSAGG [r6_113_TrROS_Hall]	2.92 ± 0.16 kcal/mol
SAKKKVVELEIEIEVPPEDLTEEELKEKVLEALRKLFPDLKIKKIEIEVRVERKEDGSLKVTVKIKIEPSAG [r14_145_TrROS_Hall]	2.01 ± 0.14 kcal/mol
SAGMVIKIKASEELRELLKKLGLSEEEVKKLKIKLKVNGKEVEVEVEVDKETGMIYVRFKDTGKTFKLPSAG [r5_545_TrROS_Hall]	1.32 ± 0.15 kcal/mol
SAGGSAKKKIIEIKIKVKTKEEAKEAIEKLSEELKKKIKKIEIVEIKEKDGEYYVKIKIEVPPNEKSAGGSA [r15_244_TrROS_Hall]	2.32 ± 0.075 kcal/mol
SAGGSAGGSPEAPADRKLVALLRSPDSDTVYLVEITPDGIVAYNANNEKTPVSPEYLVAVFDASAGGSAGGS [r20_35_TrMRF]	1.09 ± 0.054 kcal/mol

Sequence	folding stability dG unfold
SAGPYYIITVTIPLPNLSPDLQEDFPGQKVTFMFIVDPGMDMEQKRQIKEELRDFGIKDVDIMPADDIKSAG [r5_60_TrROS]	2.58 ± 0.03 kcal/mol
SAMTPEEIKKKVEELLKELAKELNAEVTSVKVDKETKTITVTVKVKLPNGETKTLTLKFTIDKDGKITFSAG [r14_183_TrROS_Hall]	4.5 ± 0.079 kcal/mol
SAGGSAGGSAGGMEVVIPLDKNERYLAYVLGEPKFVEFDPEKGYLVIPNTPPENVIVVKYSAGGSAGGSAGG [r7_200_TrMRF]	0.418 ± 0.15 kcal/mol
SAGPIKEKTITFPNGMRAKITDIQVGPPPDGEPLIKLKVKVEMWQPKRDPDGKQDGWQPMKMEMTLIIPSAG [r5_476_TrROS]	3.91 ± 0.058 kcal/mol
SAGGSAGGSASVVVTKETLPNGETRITTTTTTTTTVTVYDNNETVTTTTTTTTTTVVPKSLLSAGGSAGGSA [r18_34_JUSTAS]	1.66 ± 0.039 kcal/mol
SPPIEIKPAPENYLIAKIIDPKTNKVYYILIPKDAKLDQPALVYHPDKKEYIPLKEILDLLKKGYPLSISSA [r9_250_TrMRF]	2.43 ± 0.059 kcal/mol
SAGGSAGGSAGGPEVNIEVERYRLPNGGYLLVIRTSDGEEIVIEFDSPEEALKAAKEIAKSAGGSAGGSAGG [r11_955_TrMRF]	2.04 ± 0.056 kcal/mol
SAGGSAGGSAGGSGYTVKITLKNPDGTESTITISGTGSKEEIINSIKKKYPNNVTKVIESAGGSAGGSAGGS [r4_412_JUSTAS]	1.94 ± 0.069 kcal/mol
SAGNKVEIMLMVPMKPDPDGEPEIDPQMIREIAKAAGAEGRVEDVDIQPMPDYYMIRVRLPGKEIWIMSAGG [r19_398_TrROS]	1.1 ± 0.13 kcal/mol
SAGGSAGGSAGGGRRLVLVKVPPDVPEEVIREFARRLVEEGVPEPVVVERLEDDYALVLVSAGGSAGGSAGG [r7_283_TrMRF]	1.23 ± 0.24 kcal/mol
SAGGSAGGSAGDNWVIRIWWPNGKEQVFPGNLEDLLERIPPDNKDMKVEIFDPDDGKEIWSAGGSAGGSAGG [r11_353_TrROS]	1.01 ± 0.17 kcal/mol
SAGGSAGGSEEVVVVEVEGELVVVTKEETVTVVPAPPPPPLTAEQRALAKELEKLGLEVEIRDSAGGSAGGS [r12_172_TrROS_Hall]	-0.505 ± 0.11 kcal/mol
SAMKIKPVPDPVTGKTKYVIDFGDAEVVIYHFPNSYRIEVRKKPDNKTIVIEAKPNEIEEVLKELGLPASAG [r14_4_TrMRF]	1.85 ± 0.12 kcal/mol
SAGGSAGGSPNRKEIYIPISEEQFKENGMTPEEIADRIAEKFPHIPPNVRIEYPPNGWIKITVSAGGSAGGS [r12_50_TrROS]	-0.208 ± 0.33 kcal/mol
SAGGSAGGSAGGKPEIKLVEVENEDGSKLIKIEVNGKTIIIENVKTEEELRELLKKLGIESAGGSAGGSAGG [r7_91_TrROS_Hall]	2.66 ± 0.17 kcal/mol
SAGGMMTLKITIVDEDGNEITIEVEMSIEELEELIKELFPGKKVKVVSVEEEPVEPGLVKVTIKIEKESAGG [r13_832_TrROS_Hall]	5.01 ± 0.16 kcal/mol
SAGGSAGGSAGKPKVRLKLRLTVRVTTLNEDGSLEETEVELELEVELPEVRLPSLEELLKSAGGSAGGSAGG [r11_285_TrROS_Hall]	2.92 ± 0.24 kcal/mol
SAGGSAGGSKVDIVKVEVYEVESPLGGRYYLVKVYRKDGRPILVLASPSTTPEEVLKKAEEAESAGGSAGGS [r12_1047_TrMRF]	2.78 ± 0.053 kcal/mol
SAGGPITITIKTKNGKELELKLPGIRSVQFNPDSVWIAFKFPDQYIMIQINPPNGKIMIQIMPPGQPISAGG [r13_392_TrROS]	3.66 ± 0.053 kcal/mol
SAGGSAGGSAGGMFLIKLPNGKVLLFESEEEAKAALEELTGKPVDLENLEIVPLPEEELSAGGSAGGSAGGS [r10_62_TrROS_Hall]	3.14 ± 0.045 kcal/mol
SAGGMSIEELLKEAGYEVTVEEEEVDGKLRLKITIKANGKTLVIEVPESDAEEVLREIAKALGLEPESAGGS [r8_226_TrROS_Hall]	3.01 ± 0.047 kcal/mol
